This experiment deals with FLAG-tagged RHOA (UniProt P61586). Nature of the experiment: co-IP.

We go through one substance from article PMC12056172.

Chain of UniProt P61586 (P61586 whole entry): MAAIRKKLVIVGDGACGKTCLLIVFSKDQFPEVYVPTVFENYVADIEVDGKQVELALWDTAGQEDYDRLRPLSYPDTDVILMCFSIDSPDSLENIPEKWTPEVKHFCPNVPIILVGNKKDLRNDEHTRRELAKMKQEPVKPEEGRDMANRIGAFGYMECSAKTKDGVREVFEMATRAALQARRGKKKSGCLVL

The substance “DAAM1-ΔDAD without microexon (-MIC) (domain or fragment)” had a decrease of the co-IP signal against the +MIC construct of 40%.
